Here are results for five substances from patent US20140322269A1.

The target of experiment [1] is c1d1_N386D displayed on yeast (Saccharomyces cerevisiae). Description: yeast surface display; Fab titration, flow cytometry.
The target in experiment [2] is c1d1_b10disulf displayed on yeast (Saccharomyces cerevisiae). The experiment is described as above.
The target in experiment [3] is c1d1_v2 displayed on yeast (Saccharomyces cerevisiae). Described as above.
The target of experiment [4] is c1d1_N386D. Put plainly: SPR and ITC.
Experiment [5] has as its target wild-type core GP120 (soluble, mammalian-expressed) (HIV, HxB2 strain) (UniProt P04578). Put plainly: method not restated; rounded form of 3.9 nM of Table 1.
Experiment [6] addresses eOD_N276D_N463D. Put plainly: method not given; protein from 293 cells.
The target of experiment [7] is c1d1_N386D. Put plainly: ITC.
A further experiment deals with c1d1_b10disulf. Description: ITC.
In experiment [8] the target is c1d1_N386D. Put plainly: method not restated.
Experiment [9] has as its target c1d1_N386D. Put plainly: SPR, kinetics fitting.
For experiment [10], the target named is ODml(N386) (Human immunodeficiency virus type 1 group M subtype B (isolate HXB2) (HIV-1)) (UniProt P04578). Description: SPR; IgG captured, OD variant as analyte.
Another experiment deals with c2d1_b10disulf. Description: SPR; IgG captured, OD variant as analyte.
Another experiment addresses eOD_N276D. Put plainly: method not given.
The next experiment concerns the target eOD_L260F_N276D. Description: method not given.
Another experiment concerns the target eOD_T257S_L260F_S375W. Put plainly: method not given.
In a further experiment the target is eOD_L260F. Description: method not given.
For a further experiment, the target named is eOD_T257S_S375W. Description: method not given.
Experiment [11] has as its target wild-type core GP120 (soluble, mammalian-expressed) (HIV, HxB2 strain) (UniProt P04578). Put plainly: SPR; IgG captured by anti-human IgG, gp120 as analyte.
Experiment [12] has as its target c1d1_N386D. Put plainly: SPR.
The target in experiment [13] is eOD_N276D_N463D. Description: method not given.

Consider VRC01 Fab, for which the Kd in [1], in experiment [2] and in experiment [3] was above 50 nM throughout.
In the experiment with c1d1_N386D [4], VRC01 IgG (mature VRC01) (antibody) gave a fold worse KD than core gp120 of 35 to 50 fold. Moreover, the Kd came to 4 nM in [5]; 4 nM with eOD_N276D_N463D [6]; 200 nM with c1d1_N386D [7]; 100 nM with c1d1_b10disulf; 80 nM with c1d1_N386D [8]; 139 nM with c1d1_N386D [9]. Also, the dissociation constant (Kd) in [10] was 298 nM; in the experiment with c2d1_b10disulf it was 289 nM; with eOD_N276D it was 27.8 nM; in the experiment with eOD_L260F_N276D, 11.9 nM; with eOD_T257S_L260F_S375W, 8.6 nM; in the experiment with eOD_L260F it was 14.3 nM. Moreover, the equilibrium dissociation constant (Kd) with eOD_T257S_S375W is 90 nM; in [11], 3.9 nM. For the same substance, the fold improvement of KD over c1d1 N386D in the experiment with c1d1_b10disulf came to 2 fold. This substance gave a fold weaker affinity than core gp120 with c1d1_N386D [8] above 10 fold.
As to b12 Fab, the Kd in experiment [1] was determined as 21 nM; in experiment [3] it was 11 nM.
Take b12 IgG (antibody): the fold improvement of KD over OD (386) in the experiment with c1d1_N386D [12] turned out to be 28 fold.
As for germline VRC01 IgG (antibody), the Kd is 640000 nM with eOD_N276D, 149000 nM with eOD_L260F_N276D, above 500000 nM in the experiment with eOD_L260F and 380000 nM with eOD_N276D_N463D [13].
